Biological target: human linker histone H1.4 (human, UniProt P10412 1-219)
Experiment: pull-down

human linker histone H1.4, sequence (P10412 whole entry): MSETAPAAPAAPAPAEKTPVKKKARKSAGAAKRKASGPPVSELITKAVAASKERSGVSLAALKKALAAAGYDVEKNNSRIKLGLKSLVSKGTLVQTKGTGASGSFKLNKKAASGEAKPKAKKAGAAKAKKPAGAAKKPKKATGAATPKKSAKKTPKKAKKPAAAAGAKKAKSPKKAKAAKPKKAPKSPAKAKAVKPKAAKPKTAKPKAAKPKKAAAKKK

B1: His-tagged NAP1(160-312) (domain or fragment, human, UniProt P55209 160-312, looked up)
chain: EKEDPKGIPEFWLTVFKNVDLLSDMVQEHDEPILKHLKDIKVKFSDAGQPMSFVLEFHFEPNEYFTNEVLTKTYRMRSEPDDSDPFSFDGPEIMGCTGCQIDWKKGKNVTLKTIKKKQKHKGRGTVRTVTKTVSNDSFFNFFAPPEVPESGDL
B1: binds.

Source: PMC6598686 (Molecular cell, 2019)
